Assay results published in article PMC9666628 (Nature Communications, 2022).

T1: Cbx7.V1 (tags removed, used for FP and ITC) (human, UniProt O95931 7-66, E8D (printed as the back-mutation D8E) | Q9D | V10I (printed as the …))
T1 construct: chromodomain of human Cbx7 (Cbx7-chromo), UniProt O95931; source: E. coli BL21(DE3), purified (Ni-NTA; tags removed with TEV protease)
T1 sequence: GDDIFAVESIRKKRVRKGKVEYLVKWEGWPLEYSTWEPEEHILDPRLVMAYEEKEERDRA

T2: Cbx7.V1 E38K back-mutant (human, UniProt O95931 7-66, E8D (printed as the back-mutation D8E) | Q9D | V10I (printed as the …))
T2 construct: chromodomain of human Cbx7, UniProt O95931; Cbx7.V1 with residue 38 back to the wild type; source: E. coli BL21(DE3), purified (Ni-NTA)
T2 sequence: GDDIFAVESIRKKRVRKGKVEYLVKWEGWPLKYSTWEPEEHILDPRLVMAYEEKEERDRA

T3: Cbx7.V1 (His6- and Flag-tagged construct, used for BLI) (human, UniProt O95931 7-66, E8D (printed as the back-mutation D8E) | Q9D | V10I (printed as the …))
T3 construct: chromodomain of human Cbx7 (Cbx7-chromo), UniProt O95931; removal of the tags is told only for FP and ITC; source: E. coli BL21(DE3), purified (Ni-NTA)
T3 sequence: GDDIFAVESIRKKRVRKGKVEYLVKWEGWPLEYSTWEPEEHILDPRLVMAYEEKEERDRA

T4: Cbx7.V1 I10V back-mutant (human, UniProt O95931 7-66, E8D (printed as the back-mutation D8E) | Q9D | K33E | P37L (printed as the …))
T4 construct: chromodomain of human Cbx7, UniProt O95931; Cbx7.V1 with residue 10 back to the wild type; source: E. coli BL21(DE3), purified (Ni-NTA)
T4 sequence: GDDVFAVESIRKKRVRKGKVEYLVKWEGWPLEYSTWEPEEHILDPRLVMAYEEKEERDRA

T5: Cbx7.V1 L37P back-mutant (human, UniProt O95931 7-66, E8D (printed as the back-mutation D8E) | Q9D | V10I (printed as the …))
T5 construct: chromodomain of human Cbx7, UniProt O95931; Cbx7.V1 with residue 37 back to the wild type; source: E. coli BL21(DE3), purified (Ni-NTA)
T5 sequence: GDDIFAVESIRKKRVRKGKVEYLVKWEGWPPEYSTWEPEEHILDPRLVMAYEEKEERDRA

T6: Cbx7.V1 D8E back-mutant (human, UniProt O95931 7-66, Q9D | V10I (printed as the back-mutation I10V) | K33E | P37L (printed as the …))
T6 construct: chromodomain of human Cbx7, UniProt O95931; Cbx7.V1 with residue 8 back to the wild type; source: E. coli BL21(DE3), purified (Ni-NTA)
T6 sequence: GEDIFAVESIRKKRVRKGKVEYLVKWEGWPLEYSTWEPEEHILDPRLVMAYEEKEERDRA

T7: Cbx7.V1 E33K back-mutant (human, UniProt O95931 7-66, E8D (printed as the back-mutation D8E) | Q9D | V10I (printed as the …))
T7 construct: chromodomain of human Cbx7, UniProt O95931; Cbx7.V1 with residue 33 back to the wild type; source: E. coli BL21(DE3), purified (Ni-NTA)
T7 sequence: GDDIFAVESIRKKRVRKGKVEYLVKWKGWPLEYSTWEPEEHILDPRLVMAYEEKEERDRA

T8: Cbx7.V1 D9Q back-mutant (human, UniProt O95931 7-66, E8D (printed as the back-mutation D8E) | V10I (printed as the back-mutation …))
T8 construct: chromodomain of human Cbx7, UniProt O95931; Cbx7.V1 with residue 9 back to the wild type; source: E. coli BL21(DE3), purified (Ni-NTA)
T8 sequence: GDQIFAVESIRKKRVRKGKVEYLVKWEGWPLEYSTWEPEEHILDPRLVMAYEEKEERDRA

T9: wild-type Cbx2 chromodomain (tags removed) (human, UniProt Q14781 9-62)
T9 construct: chromodomain of human Cbx2; also called Cbx2.wt; source: E. coli BL21(DE3), purified (Ni-NTA; tags removed with TEV protease)
T9 sequence: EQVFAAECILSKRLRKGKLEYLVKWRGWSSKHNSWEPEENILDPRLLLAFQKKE

T10: wild-type Cbx8 chromodomain (tags removed) (human, UniProt Q9HC52 8-61)
T10 construct: chromodomain of human Cbx8; also called Cbx8.wt; source: E. coli BL21(DE3), purified (Ni-NTA; tags removed with TEV protease)
T10 sequence: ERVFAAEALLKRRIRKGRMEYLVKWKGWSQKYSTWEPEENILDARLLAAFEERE

T11: Cbx7 Q9D chromodomain (tags removed) (human, UniProt O95931 7-66, Q9D)
T11 construct: chromodomain of human Cbx7 (Cbx7-chromo), UniProt O95931; source: E. coli BL21(DE3), purified (Ni-NTA; tags removed with TEV protease)
T11 sequence: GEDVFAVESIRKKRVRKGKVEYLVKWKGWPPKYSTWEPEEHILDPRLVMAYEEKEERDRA

T12: wild-type Cbx7 chromodomain (tags removed) (human, UniProt O95931 7-66)
T12 construct: chromodomain of human Cbx7 (Cbx7-chromo), UniProt O95931; also called Cbx7.wt; source: E. coli BL21(DE3), purified (Ni-NTA; tags removed with TEV protease)
T12 sequence: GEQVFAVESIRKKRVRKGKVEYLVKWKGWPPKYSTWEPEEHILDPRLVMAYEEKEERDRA

T13: Cbx7 K33E chromodomain (tags removed) (human, UniProt O95931 7-66, K33E)
T13 construct: chromodomain of human Cbx7 (Cbx7-chromo), UniProt O95931; source: E. coli BL21(DE3), purified (Ni-NTA; tags removed with TEV protease)
T13 sequence: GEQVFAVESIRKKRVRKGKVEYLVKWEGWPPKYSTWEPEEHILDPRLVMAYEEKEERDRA

T14: Cbx7.VD chromodomain, Q9D/K33E (tags removed) (human, UniProt O95931 7-66, Q9D | K33E)
T14 construct: chromodomain of human Cbx7 (Cbx7-chromo), UniProt O95931; source: E. coli BL21(DE3), purified (Ni-NTA; tags removed with TEV protease)
T14 sequence: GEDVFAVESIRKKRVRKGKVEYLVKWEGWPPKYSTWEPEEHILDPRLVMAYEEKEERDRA

T15: Cbx7 Q9D (human, UniProt O95931 7-66, Q9D)
T15 construct: chromodomain of human Cbx7 (UniProt O95931) with Q9D; source: E. coli BL21(DE3), purified (Ni-NTA); tags removed with TEV protease
T15 sequence: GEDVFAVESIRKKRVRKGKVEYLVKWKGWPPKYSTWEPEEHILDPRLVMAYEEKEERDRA

T16: Cbx7.V1 (human, UniProt O95931 7-66, E8D (back-mutant printed as D8E) | Q9D (back-mutant printed as D9Q) | V10I …)
T16 construct: also called Cbx7.5; source: E. coli BL21(DE3), purified (Ni-NTA); tags removed with TEV protease
T16 sequence: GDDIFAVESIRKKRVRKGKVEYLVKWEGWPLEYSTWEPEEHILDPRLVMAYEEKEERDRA

T17: Cbx7 K33E (human, UniProt O95931 7-66, K33E)
T17 construct: chromodomain of human Cbx7 (UniProt O95931) with K33E; source: E. coli BL21(DE3), purified (Ni-NTA); tags removed with TEV protease
T17 sequence: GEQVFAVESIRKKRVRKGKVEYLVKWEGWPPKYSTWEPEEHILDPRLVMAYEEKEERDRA


What was measured:
Conditions in all cases: both partners purified
[1] = target: T1, Cbx7.V1 (tags removed, used for FP and …); assay: ITC; peptides (1.2-2 mM, syringe) titrated into Cbx7.V1 (70-112 µM, cell); 25 °C; PBS pH 7.4, 1 mM TCEP; one-site binding model
Cbx7.V1 E38K back-mutant = target: T2, Cbx7.V1 E38K back-mutant; assay: BLI; biotinylated peptides immobilised on streptavidin biosensor tips (Octet HTX); chromodomains in solution at 5 or 1 µM; 25 °C; 25 mM HEPES pH 7.0, 150 mM NaCl, 1 mg/ml BSA, 0.01% Tween-20; steady-state fit, Langmuir model
[2] = target: T3, Cbx7.V1 (His6- and Flag-tagged …); assay: as above
Cbx7.V1 I10V back-mutant = target: T4, Cbx7.V1 I10V back-mutant; assay: as above
Cbx7.V1 L37P back-mutant = target: T5, Cbx7.V1 L37P back-mutant; assay: as above
Cbx7.V1 D8E back-mutant = target: T6, Cbx7.V1 D8E back-mutant; assay: as above
Cbx7.V1 E33K back-mutant = target: T7, Cbx7.V1 E33K back-mutant; assay: as above
Cbx7.V1 D9Q back-mutant = target: T8, Cbx7.V1 D9Q back-mutant; assay: as above
[3] = target: T9, wild-type Cbx2 chromodomain (tags …); assay: fluorescence polarisation; 0.5 nM FITC-labelled peptide; chromodomains 200-0.2 µM (wild type) or 50 µM-50 nM (Cbx7.V1 and all Cbx.VDs); 30 min at 25 °C; 25 mM HEPES pH 7.5, 150 mM NaCl, 1 mM DTT, 0.01% TritonX-100; one-site total binding model
[4] = target: T10, wild-type Cbx8 chromodomain (tags …); assay: as above
[5] = target: T1, Cbx7.V1 (tags removed, used for FP and …); assay: as above
[6] = target: T11, Cbx7 Q9D chromodomain (tags removed); assay: as above
[7] = target: T12, wild-type Cbx7 chromodomain (tags …); assay: as above
[8] = target: T13, Cbx7 K33E chromodomain (tags removed); assay: as above
[9] = target: T14, Cbx7.VD chromodomain, Q9D/K33E (tags …); assay: as above
Cbx7 Q9D = target: T15, Cbx7 Q9D; assay: fluorescence polarisation; 0.5 nM FITC-labeled peptide, chromodomain serially diluted (wild type 200-0.2 µM; Cbx7.V1 50 µM-50 nM); 25 mM HEPES pH 7.5, 150 mM NaCl, 1 mM DTT, 0.01% TritonX-100; 30 min at 25 °C; one-site total binding model
Cbx7.V1 = target: T16, Cbx7.V1; assay: as above
Cbx7 K33E = target: T17, Cbx7 K33E; assay: as above

Row | Kd [1] | stoichiometry N [1] | Kd (Cbx7.V1 E38K back-mutant) | Kd [2] | Kd (Cbx7.V1 I10V back-mutant) | Kd (Cbx7.V1 L37P back-mutant) | Kd (Cbx7.V1 D8E back-mutant) | Kd (Cbx7.V1 E33K back-mutant) | Kd (Cbx7.V1 D9Q back-mutant) | Kd (Cbx7 Q9D) | Kd (Cbx7.V1) | Kd (Cbx7 K33E) | Binder | other results
1 | 7 µM | ~1 | 2000 nM | 4.5 µM | 3500 nM | 3000 nM | 5 µM | 10 µM | > 20000 nM |  |  |  | ARTKQTARKSTGGKAPR (trimethyl-lysine at K9; biotin followed by an aminohexanoic acid linker at the N-terminus) [H3K9me3 peptide, N-terminal biotin] | 
2 |  |  |  |  |  |  |  |  |  |  |  |  | KQLATKAARKSAPATGGVK (trimethyl-lysine at K27; fluorescein isothiocyanate (FITC) at the N-terminus) [H3K27me3 peptide, N-terminal FITC] | Kd [3]: 100 µM; Kd [4]: > 200 µM; Kd [5]: 4 µM; Kd [6]: 100 µM; Kd [7]: 110 µM; Kd [8]: 20 µM; Kd [9]: 5 µM
3 |  |  |  |  |  |  |  |  |  | 12.3 µM | 7.2 µM | 18 µM | ARTKQTARKSTGGKAPR (trimethyl-lysine at K9 (Kme3); fluorescein isothiocyanate (FITC) on the N-terminus, histone H3 N-terminal tail, residues 1-17; source: synthetic peptide (GenScript)) [FITC-labeled H3K9me3 peptide] | 
4 |  |  |  |  |  |  |  |  |  | 97 µM | 4.2 µM | 17.5 µM | KQLATKAARKSAPATGGVK (trimethyl-lysine at K27 (Kme3); fluorescein isothiocyanate (FITC) on the N-terminus, histone H3 tail, residues 18-36; source: synthetic peptide (GenScript)) [FITC-labeled H3K27me3 peptide] | 
5 | 7.8 µM | ~1 | 1500 nM | 2 µM | 2000 nM | 2500 nM | 2 µM | > 20 µM | 2000 nM |  |  |  | KQLATKAARKSAPATGGVK (trimethyl-lysine at K27; biotin followed by an aminohexanoic acid linker at the N-terminus) [H3K27me3 peptide, N-terminal biotin] | 
